Data set [1] addresses T1, L7Ae (Pyrococcus abyssi, UniProt P62008 1-123). In words: footprinting (Pb2+); K-loop KTa/KTb protected; EMSA: 150 mM KCl, 1.5 mM MgCl2, 0.2 mM EDTA, 20 mM HEPES pH 7.9, 65 C 10 min, 50 fmol sRNA, 200 nM proteins (Kd: 50-400 nM aCBF5); fluorescence: 300 mM NaCl, 25. For orientation: In EMSA bound probe runs differently from free probe, usually more slowly.
Data set [2] has as its target T1, L7Ae. The experiment in a line: footprinting (Pb2+); K-loop KTa/KTb protected; A34-U35 enhanced; EMSA: 150 mM KCl, 1.5 mM MgCl2, 0.2 mM EDTA, 20 mM HEPES pH 7.9, 65 C 10 min, 50 fmol sRNA, 200 nM proteins (Kd: 50-400 nM aCBF5); fluorescence: 300 mM NaCl, 25.

B1: Pab91 H/ACA sRNA (structured_RNA)
RNA: GGGUAAUGCCCCUCCCCUCUCACACCUCCGGGAUCAGUGACCGGAGGGCGGUCGGGGAGGGGACACCU
Take B1: the binding result in the data set with L7Ae [1] is listed as “binds”.

B2: Pab21 H/ACA sRNA (structured_RNA)
RNA: GGGGAUGGGCCCGGCUCCCGCCCUCUCCGGGGAAUCGUGAACCGGGGGUUCCGGCCGGGCCUACAGU
B2: the binding result in the data set with L7Ae [2] was “binds”.

Values taken from paper PMC3726423.
